The values below are quoted from earlier work in paper PMC3433420.

Like-named read-outs stand apart in the source and are kept apart here.

Targets include LYN (Homo sapiens) (UniProt P07948); DAPP1 (Homo sapiens) (UniProt Q9UN19); VAV1 (Homo sapiens) (UniProt P15498); ABL2 (Homo sapiens) (UniProt P42684); SHC1-PTB (Homo sapiens) (UniProt P29353); PIK3R2-N (Homo sapiens) (UniProt O00459); PTPN11-N (Homo sapiens) (UniProt Q06124); PIK3R1-NC (Homo sapiens) (UniProt P27986); NCK2 (Homo sapiens) (UniProt O43639); ITK (Homo sapiens) (UniProt Q08881); PIK3R2-NC (Homo sapiens) (UniProt O00459); NCK1 (Homo sapiens) (UniProt P16333); RASA1-NC (Homo sapiens) (UniProt P20936); RASA1-C (Homo sapiens) (UniProt P20936); SLA2 (Homo sapiens) (UniProt Q9H6Q3); SYK-C (Homo sapiens) (UniProt P43405); SUPT6H (Homo sapiens) (UniProt Q7KZ85); PIK3R3-NC (Homo sapiens) (UniProt Q92569); PLCG1-N (Homo sapiens) (UniProt P19174); SOCS6 (Homo sapiens) (UniProt O14544); FGR (Homo sapiens) (UniProt P09769); PLCG1-NC (Homo sapiens) (UniProt P19174).

Holding throughout (conditions): cited from earlier work
For data set [1], the target named is YES1 (Homo sapiens) (UniProt P07947).
The target of data set [2] is SRC (Homo sapiens) (UniProt P12931).
The target of data set [3] is SLA (Homo sapiens) (UniProt Q13239).
The target in data set [4] is VAV2 (Homo sapiens) (UniProt P52735).
Data set [5] shares this target. The source holds these as a separate data set.
Data set [6] deals with SRC (Homo sapiens) (UniProt P12931). The source holds these as a separate data set.
The target of data set [7] is YES1 (Homo sapiens) (UniProt P07947). The source holds these as a separate data set.
Data set [8] has as its target SLA (Homo sapiens) (UniProt Q13239). The source holds these as a separate data set.

Chain of YES1 (Homo sapiens) (P07947 153-260): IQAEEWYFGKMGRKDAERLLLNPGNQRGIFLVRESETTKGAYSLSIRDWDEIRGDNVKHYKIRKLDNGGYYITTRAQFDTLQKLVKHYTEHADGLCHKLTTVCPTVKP
Chain of SLA (Homo sapiens) (Q13239 79-180): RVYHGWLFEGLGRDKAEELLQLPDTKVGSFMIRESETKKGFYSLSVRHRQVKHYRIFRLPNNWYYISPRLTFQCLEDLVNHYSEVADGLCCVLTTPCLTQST
Chain of VAV2 (Homo sapiens) (P52735 668-772): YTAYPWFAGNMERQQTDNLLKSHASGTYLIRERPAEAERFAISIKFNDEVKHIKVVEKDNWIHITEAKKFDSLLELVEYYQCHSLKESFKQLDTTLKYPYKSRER
Chain of SHC1-PTB (Homo sapiens) (P29353 483-583): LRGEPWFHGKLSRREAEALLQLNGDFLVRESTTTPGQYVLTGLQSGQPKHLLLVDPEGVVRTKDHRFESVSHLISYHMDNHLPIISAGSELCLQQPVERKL
Chain of SUPT6H (Homo sapiens) (Q7KZ85 1320-1436): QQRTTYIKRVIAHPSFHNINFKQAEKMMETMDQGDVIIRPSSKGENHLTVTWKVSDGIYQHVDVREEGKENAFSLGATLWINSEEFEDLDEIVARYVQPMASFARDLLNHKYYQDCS
Chain of PIK3R1-NC (Homo sapiens) (P27986 328-723): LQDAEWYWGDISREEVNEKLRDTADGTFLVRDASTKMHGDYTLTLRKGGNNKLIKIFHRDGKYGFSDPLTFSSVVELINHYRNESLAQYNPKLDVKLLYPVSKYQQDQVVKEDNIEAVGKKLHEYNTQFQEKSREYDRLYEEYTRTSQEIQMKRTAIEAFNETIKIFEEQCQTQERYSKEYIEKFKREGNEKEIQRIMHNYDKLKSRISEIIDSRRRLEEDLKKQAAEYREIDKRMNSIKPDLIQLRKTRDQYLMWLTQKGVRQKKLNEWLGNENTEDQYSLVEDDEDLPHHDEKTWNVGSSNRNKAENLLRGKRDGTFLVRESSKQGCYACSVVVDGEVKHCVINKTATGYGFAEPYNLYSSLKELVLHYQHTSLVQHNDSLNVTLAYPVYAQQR
Chain of VAV1 (Homo sapiens) (P15498 666-770): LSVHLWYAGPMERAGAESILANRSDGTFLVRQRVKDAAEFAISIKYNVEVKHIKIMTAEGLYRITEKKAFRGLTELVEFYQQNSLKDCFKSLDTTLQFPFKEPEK
Chain of SLA2 (Homo sapiens) (Q9H6Q3 89-196): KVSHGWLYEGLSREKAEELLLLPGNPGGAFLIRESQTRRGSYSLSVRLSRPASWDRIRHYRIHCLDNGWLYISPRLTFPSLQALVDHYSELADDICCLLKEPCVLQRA
Chain of SOCS6 (Homo sapiens) (O14544 379-496): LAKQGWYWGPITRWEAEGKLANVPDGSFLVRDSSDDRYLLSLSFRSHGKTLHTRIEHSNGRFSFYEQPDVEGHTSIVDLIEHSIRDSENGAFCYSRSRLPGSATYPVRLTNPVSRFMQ
Chain of RASA1-C (Homo sapiens) (P20936 176-446): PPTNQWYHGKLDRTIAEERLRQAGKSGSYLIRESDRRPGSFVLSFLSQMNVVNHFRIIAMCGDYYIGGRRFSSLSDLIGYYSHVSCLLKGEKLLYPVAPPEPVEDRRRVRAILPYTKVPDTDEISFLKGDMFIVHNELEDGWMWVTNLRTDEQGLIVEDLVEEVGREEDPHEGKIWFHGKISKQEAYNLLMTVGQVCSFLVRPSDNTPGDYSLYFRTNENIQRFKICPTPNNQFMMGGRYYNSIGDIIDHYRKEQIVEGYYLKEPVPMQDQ
Chain of RASA1-NC (Homo sapiens) (P20936 176-446): as above
Chain of NCK2 (Homo sapiens) (O43639 280-380): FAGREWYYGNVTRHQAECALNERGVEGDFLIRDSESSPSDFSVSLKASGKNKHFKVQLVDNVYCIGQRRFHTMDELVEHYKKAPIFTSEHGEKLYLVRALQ
Chain of PIK3R2-NC (Homo sapiens) (O00459 325-721): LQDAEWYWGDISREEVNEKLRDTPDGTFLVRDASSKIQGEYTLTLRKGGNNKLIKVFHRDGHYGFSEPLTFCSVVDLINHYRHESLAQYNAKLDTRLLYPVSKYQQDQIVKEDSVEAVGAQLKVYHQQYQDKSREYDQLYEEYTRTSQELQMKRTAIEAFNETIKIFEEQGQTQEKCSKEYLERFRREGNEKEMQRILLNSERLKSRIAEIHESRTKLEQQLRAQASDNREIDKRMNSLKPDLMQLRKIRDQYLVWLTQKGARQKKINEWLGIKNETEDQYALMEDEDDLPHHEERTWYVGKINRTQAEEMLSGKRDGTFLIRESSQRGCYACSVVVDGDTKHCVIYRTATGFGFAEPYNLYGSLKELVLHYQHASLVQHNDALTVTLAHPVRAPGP
Chain of PIK3R2-N (Homo sapiens) (O00459 325-721): as above
Chain of LYN (Homo sapiens) (P07948 124-231): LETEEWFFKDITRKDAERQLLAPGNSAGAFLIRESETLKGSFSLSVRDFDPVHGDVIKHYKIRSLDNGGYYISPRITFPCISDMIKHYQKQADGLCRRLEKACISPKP
Chain of ABL2 (Homo sapiens) (P42684 168-268): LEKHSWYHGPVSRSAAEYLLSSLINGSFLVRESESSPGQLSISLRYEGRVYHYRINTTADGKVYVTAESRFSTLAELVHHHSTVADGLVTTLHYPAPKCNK
Chain of PLCG1-NC (Homo sapiens) (P19174 545-761): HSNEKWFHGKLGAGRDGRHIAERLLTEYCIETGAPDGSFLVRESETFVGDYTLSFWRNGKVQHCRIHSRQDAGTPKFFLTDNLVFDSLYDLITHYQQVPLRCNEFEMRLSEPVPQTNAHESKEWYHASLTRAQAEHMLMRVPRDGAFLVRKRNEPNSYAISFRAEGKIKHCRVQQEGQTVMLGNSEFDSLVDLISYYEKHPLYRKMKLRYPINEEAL
Chain of PLCG1-N (Homo sapiens) (P19174 545-761): as above
Chain of ITK (Homo sapiens) (Q08881 234-343): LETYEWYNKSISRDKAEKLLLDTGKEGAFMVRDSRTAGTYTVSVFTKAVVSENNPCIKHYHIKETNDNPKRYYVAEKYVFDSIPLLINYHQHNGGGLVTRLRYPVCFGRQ
Chain of DAPP1 (Homo sapiens) (Q9UN19 30-134): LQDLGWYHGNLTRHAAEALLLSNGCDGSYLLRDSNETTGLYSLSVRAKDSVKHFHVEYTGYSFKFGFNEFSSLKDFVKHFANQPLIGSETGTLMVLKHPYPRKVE

With …pYEEMRAFQ, the apparent Kd (screen) is 340 nM with LYN (Homo sapiens), 2000 nM with YES1 (Homo sapiens) [1], 999 nM with DAPP1 (Homo sapiens) and 499 nM in the data set with VAV1 (Homo sapiens).
As for …pYLIPQQGFd, the apparent Kd (screen) with ABL2 (Homo sapiens) is 282 nM; with SHC1-PTB (Homo sapiens) it was 628 nM; with PIK3R2-N (Homo sapiens), 425 nM; with PTPN11-N (Homo sapiens), 379 nM.
With …pYLVPQQGF, the apparent Kd (screen) in the data set with PIK3R1-NC (Homo sapiens) was 1640 nM; with SRC (Homo sapiens) [2] it was 757 nM; with NCK2 (Homo sapiens) it was 2000 nM; with SLA (Homo sapiens) [3], 2000 nM; with ITK (Homo sapiens) it was 445 nM; in the data set with VAV2 (Homo sapiens) [4], 2000 nM.
As to …pYWDQDPPE, the apparent Kd (screen) with PIK3R2-NC (Homo sapiens), in the data set with NCK1 (Homo sapiens), with VAV2 (Homo sapiens) [5], in the data set with SRC (Homo sapiens) [6], with RASA1-NC (Homo sapiens) and in the data set with RASA1-C (Homo sapiens) was 2000 nM throughout. Also, the apparent Kd (screen) was 2000 nM in the data set with SLA2 (Homo sapiens); 1970 nM in the data set with SYK-C (Homo sapiens); 2000 nM with SUPT6H (Homo sapiens); 783 nM in the data set with PIK3R3-NC (Homo sapiens); 2000 nM with PLCG1-N (Homo sapiens); 2000 nM with SOCS6 (Homo sapiens). Further, the apparent Kd (screen) is 219 nM with YES1 (Homo sapiens) [7], 2000 nM with FGR (Homo sapiens), 1780 nM in the data set with PLCG1-NC (Homo sapiens) and 2000 nM with SLA (Homo sapiens) [8].
